# Measured values as given in the nanobody polyreactivity screen of Harvey et al. (2022).
# Experiment: yeast display, Sf9 membrane polyspecificity reagent, FACS + sequencing; frameworks hold sequencing errors
# Procedure, shortened: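 Nanobodies came from a synthetic yeast display library in Saccharomyces cerevisiae BJ5465, induced with galactose for 36–48 hours and stained for 1 hour at 4 °C with 10% biotinylated, detergent-solubilized Sf9 membrane reagent. Cells were enriched on streptavidin microbeads and then FACS-sorted, with low and high (top ~1%) gates set on anti-HA fluorescence for expression and streptavidin fluorescence for reagent binding. Each polyreactivity label reflects the gate a clone came from. Genes were amplified by colony PCR, sequenced by MiSeq 2 × 250 and filtered by CDR length.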
sequence,measurement,value
QVQLVESGGGLVQAGGSLRLSCAASGSIFDRNAMGWYRQAPGKERELVATITWSGVSTYYADSVKGRFTISRDNAKNTVYLQMKSLKPEDTAVYYCYADYSYRHWYDPGQYGQAMGYWGQGTKVTVSS,polyreactivity (PSR sort gate),low polyreactivity
QVQLVESGGGLVQAGGSLRLSCAASGRTFAGYAMGWYRQAPGKERELVAAISTRGGSTYYADSVKGRFTISRDNAKNTVYLQMNSLKPEDTAVYYCAATKPKFYQFDYWGQGTQVTVSS,polyreactivity (PSR sort gate),high polyreactivity
QVQLVESGGGLVQAGGSLRLSCAASGFIFANYAKGWYRPAPGKERELVAAISSGGITYYADSVKGRFTISRDNAKNTVYLQMNSRKPEDTAVYYCACDVRYQDRSGEYHHWDGDYWGQGTQVTVTS,polyreactivity (PSR sort gate),low polyreactivity
QVQLVESVGGLVQAGGSLRLSCAASGSTFLRYAMGWYRQAPGKERELVAAITASGGSTYYADSVKGRFTISRDNAKKSVYLQMNSLKPEDTAVYYCAADGRYIGKNSHDLWIYGYYYWGQGTQVTVSS,polyreactivity (PSR sort gate),low polyreactivity
QVQLVESGGGLVQAGGSLRLSCAASGSIFTPYAMGWYRQAPGKERELVAAISDSVGSTYYADSVKGRFTISRDNAKNTVYLQMNSLKPEDTAVYYCAAEYWVYDSYWFDYDYWGQGTQVTVSS,polyreactivity (PSR sort gate),high polyreactivity
QVQLVESGGGLVQAGGSLRLSCAASGYIVTSYTMGWYIQAPGKERELVAAISASDGSTYADSVKGRFTISRDNAKNTVYLQMNSLKPEDTAVYYCNKAAYGGHRTSEQVGWVYLYDYWGQGTQVTVSS,polyreactivity (PSR sort gate),low polyreactivity
QVQLVESGGGLVQAGGSLRLSCAASGSIFELNAMGWYRQAPGKERELVAAITSSGSSTYYADSVKGRFTISRDNAKNTVYLQMNSLKPEDTAVYYGFRPHDYWGQGTQVTVSS,polyreactivity (PSR sort gate),low polyreactivity
QVQLVESGGGVVQAGGSLRLSCAASGSIVYSYAMGWYRQAPGKERELVARIRWGGGRTYYADSVKGHFAISRDNAKNTVYLQMNSLKPEDTAVYYCAASYVYPASFHYYYWGQGTQVTVSS,polyreactivity (PSR sort gate),high polyreactivity
QVQLVESGGGLVHAGGSLRLSCAASGSIFPSNAMGWYREAPGKERELVAAISQSGGRTYYADSVKGRFTISRDNAKNTVYLQMNSLKPEDTAVYYCAADHRRAGMDYWGQGTQVTVSS,polyreactivity (PSR sort gate),low polyreactivity
QVQLVESGGGLVQAGGSLRLSCAASGGTFWIYAMGWYRQAPGKERELVAGITTSGATTYYADSVKGRFTISRDNAKNTVYLQMNSLKPEDTAVYYCAAVIRPRYYQVRPRYDYWGQGTQVTVSS,polyreactivity (PSR sort gate),low polyreactivity
QVQLGESGGGLVQAGGSLRLSCAASGSTFVVYAMGWYRQAPGKERELVAAITRGASTTYADSVKGRFTISRDNAKNTVYLQMNSLKPEDTAVYYCAAAVAYEYLQSAYTRYYYWGQGTQVTVSS,polyreactivity (PSR sort gate),high polyreactivity
QVQLVESGGGLVQAGGRLRLTCAASGFTFRYYAMGWYRQAPGKERELVATITRGGSTNYAESVKWRFTISRDNAKNTVYFQMNSLKPEDTAVYYCATGKIYWRGYEYWGQGTQVTVSS,polyreactivity (PSR sort gate),high polyreactivity
QVQLVESGGGLVQAGGSLRLSCAASGSTFYQYVMGWYRQAPGKESELVAAISSSGGSTYYADSVKGRFTISRDNAKNTVYLQMTSLKPEDTAVYYCAVDNYRGYGHDYYWGQGTQVTVSS,polyreactivity (PSR sort gate),low polyreactivity
QVHLVASGGGLVQAGGSLRLSCAASGRSFYEYAMGRYRQEPGKERELVAGITSGGSTNYADSVKGRFTISRDNAKNTVYLQMTSLKPEDTAVYYCADSYWGYEYDYWGQGTQVTVSS,polyreactivity (PSR sort gate),low polyreactivity
QVQLVESGGGLVQAGGSLRLSCAASGSIFTPNAMGWYRQAPGKERELVAAISSSSDRTYYADSVKGRFTISRDNAKNTVYLQMNSLKPEDTAVYYCAAYAQKRYYWGQVTQVTVSS,polyreactivity (PSR sort gate),high polyreactivity
QVQLVESVRRLVQAGGSLRLSCAASGSIYYPYAMGWYRQAPGKEMELVAAITGHGGSTYYADSVKGRFTISRDNAKNTVYLQMNSLNPEDTAVYYCATGGYQPVLHRGYYRFNYWGQGTQVTVSS,polyreactivity (PSR sort gate),low polyreactivity
QVQLVESGGGLVQAGGSLRLSCAATGFIFDSYAMGWYRQAPGKERELVAAISWSGGRTYYADSVKGRFTISRDNAKNTVYLQMNSLKPEDTAVYYCNVRTKLSTSYDYWGQGTQVTVSS,polyreactivity (PSR sort gate),high polyreactivity
QVQLVESGGGLVQAGGSLRLSCAASGFIFPRYAMGWYRQAPGQERELVAAISKSGGRTYYADSGKGRFTISRDYAKNTFYLQMNSLNPEDTAVYYCAAGRISRFSRYYYWGQGTQVTVSS,polyreactivity (PSR sort gate),high polyreactivity
QVQLVESGGGLVQPGGSLRLSCAASGSIFYGYTMGWYRQEPGKERELVAAIRKSGGSTNYADSVKWRFTISRDIAKNTVYLQMNSLKPEDTAVYYCAAAYYRGRGYFWGQGTQVTVSS,polyreactivity (PSR sort gate),high polyreactivity
QVQLVESGGGLVQAGGSLRLSCAASGRIFYHNAMGWYRQAPGKERELVAAIRWSGGSTYYADSEKGRFTISRDNAKNTVYLLMKSLKPEDTAVYYWATDVPIREIDEFGYWGQGTQVTVSS,polyreactivity (PSR sort gate),low polyreactivity
QDQHVESGGGFVQAGGSLRLICAASGYTFYGNPMGWYRQAPGKEREFVASINYNDDSTYYADSVKGRFTISLDNAKNTDYLQMNSLKPEDTAVYYCAAEYRTRGYHWIYYWGQGTQVTVSS,polyreactivity (PSR sort gate),low polyreactivity
QVQLVESGGGLVQAGGSLRLSCAASGSTIGANAMGWSRQAPGKERELVAAISLSGGTSYADSVKGRFTISRDNAKNTVYLQMNSLKPEDTAVYYCAAPGRGWFDWYAHYYWGQGTQVTVSS,polyreactivity (PSR sort gate),low polyreactivity
QVQLEESGGGLVQAGGSLRLSCAASGRNISRNAMGGYRQPPGKERELVAAITQSGTSTYYADSVKGRFTLSRDNAKNTVYLQMKSLIPEDTAVYYCNAYRQYRYDYWGQGSQVTVSS,polyreactivity (PSR sort gate),low polyreactivity
QVQLVESGGGLVQAGGRLRLSCAASGRIFKFYAMGWYRQAPGKERELVAAIRRGGTTNYADSVKGRFTISRDNAKNTFYLQMNSLKPEDTAVYFCAADGWYRVLTGLVSSWKYWGQGTQVTVSS,polyreactivity (PSR sort gate),high polyreactivity
QVQLVESGGGLVQAGGSLRLSCAASGTTFAGNAMGWYRQAPGKERELVAAITFSGGRTDYADSVKGCFTISRDNAKNTVYLQMNSLKPEDTAVYYCAAPADDTVHYQNYYWGQGTQVTVSS,polyreactivity (PSR sort gate),low polyreactivity
QVQLVESGGGLVQAGGSLRLSCAASGFIFSRYTMGWYRQAPGKERELVAAITARGSSTYYADSVKGRFTISRDIAKNTVYLQMISLKPEDTAVYYCNAGQYVFYRPYDYWGQGTQVTVSS,polyreactivity (PSR sort gate),high polyreactivity
QVQLVESGGGLVQAGGSLRLSCAASGTTFAVYTMGWYRQAPGKERELSTSYADSVKGRFTISRDNAKNTVYLQMNILKQEDTAVYYCNRDFYEFDSNSYRFDYWGQGTQVTVSS,polyreactivity (PSR sort gate),low polyreactivity
QVQLVESGGGLVQAGGSLRLSCAASGRIFWPNAMGWYRQAPGKERELVAAISYSGGSTYYADSVKGRFTISRDNAKNTVYLQMNSLKPEDTAVYYCAATRSVRISGDGYLGYDYWGQGTQVTVSS,polyreactivity (PSR sort gate),high polyreactivity
QVQLVESGGGLVQAGGSLRLSCAASGRIFDNYAMGWYRQAPGKDREWVAAISSRGRSTYYADSVKGRFTISRDNAKNTVYLQMNSLKPEDTAVYYCAKDLGYRGRYNYWGQGTQVTVSS,polyreactivity (PSR sort gate),low polyreactivity
QVQRVESGGGLVQAGGSLRLRCAASGSIFYQYALGWYRQARGKEREWVAAISRSGGRTYYADSVKGRFTISRDNAKNTVYLQMNSLKPEDTAVYYCAAGTSWPWYQRDYWGQGTQVTVSS,polyreactivity (PSR sort gate),low polyreactivity
QVQLVESGGGLVQAGGSLRLSCAASGRTFGSYAMGWYRPAPGKERELVAGISWSGGITYYADSVKGRFTISRDNAKNSVYLQMNSLKPEDTAVYYCAADSVVWEMEYWGQGTQVTVSS,polyreactivity (PSR sort gate),high polyreactivity
QVQLVESGGRLVQAGGSLRLSCAASRRIFTFYAMGWSRPAPGKERELVAAITGRGGSTYYADSVKGRFTISRDNAKNTVYLQMNSLKPEDTAVYYCAKRTSYRSHRYYYWGQGTQVTVSS,polyreactivity (PSR sort gate),high polyreactivity
QVQLVESGGGLVQAGGSLRLSCAASGRIFQLYAMGWYRQAPGKERELVAANAWSGGSTYYADSVKGRFTISRDNAKNSVYLQMNSLKPEDTAVYDCAVEGYHGSRRYYYWGQGTQVTVSS,polyreactivity (PSR sort gate),high polyreactivity
QVQLVESGGGLVQAGGSLRLSCAASGFIFYYNAMGWYRQAPGKERELVAAISSSAGSTYYADSVKGRFTISRDNAKNTVYLQMNSLKPEDTAVYYCNADSSYRTIDSASDYDYWGQGTQVTVSS,polyreactivity (PSR sort gate),low polyreactivity
QVQLVESGGGLVQAGGSLRLSCAASGYILWNAIGWYRQAPGKERELVAAITSGGSTYYADSVKGRFSISRDNAKNTVYLQMNSRKPEDTAVYDCNQESYFDTYRRYDSWGQGTQETVSS,polyreactivity (PSR sort gate),low polyreactivity
QVQLVESGGCLVQAGGSLRLSCASSGSTFTHYAMGWYIQSPGKERELVAAISSGGSTYYADSVKGRFTISRDNAKNTVYLQMNSLKPEDTAVYYCAADYYLHDWWYPHDYWGQGTQVTVSS,polyreactivity (PSR sort gate),low polyreactivity
QVQLQESGGGLVQAGGSLRLTCAASGSIFDGFNMGWYRQAPGKDREFVDAISYGASTYYADSVKGRFTVSRDNAINSVYLQMNSLKPEDTALYYWAVYDELYHVLVYWGRGTQVTVSS,polyreactivity (PSR sort gate),low polyreactivity
QVQRVESGGGLVQAGGSLRLRCAASGSILYHNTMGWYIQAPGKEREFVASISANGGSTYYADSVKGRFTISRDNAKNTVYLQMNSLKPEDTAVYYCAARVADYPLVGGSSYNRMEYWGQGTQVTVSS,polyreactivity (PSR sort gate),low polyreactivity
QVQLVESGAGLVQAGGSLRLSCADSVNTFWYYTMGWYRQAPGKERELVAAISRGGRPYYADSVKGRFTISRDNAKNTVYLQMNSLKPEDTAVYNCNKPAPYTGSFDRSGIFDYWGQGTQVTVSS,polyreactivity (PSR sort gate),high polyreactivity
QVQLVESGGGVVQAGGSLSLSCAASGFNFNYYAMGWYRPAPGKERELVAISRGGTTNYADSVKGRFTISRDNAKNTVYLQMNSLKPEDTAVYYCAVTGTYYGYSWQSRYKYDYWGQGTQVTVSS,polyreactivity (PSR sort gate),high polyreactivity
QVQLVESGGGLVQAGGSLRLSCAASGRIFFIYAMGWYRQAPGKERELVAAISYDSGSTYYADSVKGRFTISRDNAKNTVSLQMNSLKPEDTAVYYCAAEWGLVIYSTYGYDYWGQGTQVTVSS,polyreactivity (PSR sort gate),low polyreactivity
QVQLVESGGGLVQAGGSLRLSCAASGRTFRTYVMGWYRRAPGKEREFVAGITWSSGSTRYADSVKGRFTISRDNAKNTVYLQMNSLKPEDTAVYYCAAKRWPGTDGYWGQGTQVTVSS,polyreactivity (PSR sort gate),high polyreactivity
QVQLVESGVGLVQAGGSLRLSCAASGITFVDYGMGWYRQAPGKERELVSAISRSGGSTYYADSVKGRFTISRDNAKNTVYLQMNSLKPEDTAVYYCATVLSRVRNSDKYWGQVTQVTVSS,polyreactivity (PSR sort gate),high polyreactivity
